Where no end group is shown, it is not given here. [ ]: non-standard residue; d: D form. The star is where a group is joined. aminomethylferrocene = [Fe+2].c1cc[c-](CN*)c1.c1cc[cH-]c1; Ava = NCCCCC(=O)O
Target: T1, recombinant human cathepsin B (rhCB) (Homo sapiens, UniProt P07858)
T1 construct: purchased R&D Systems Inc. (Minneapolis, MN)
Assay: Electrochemical (ACV) proteolysis of peptide-Fc on Au MEA by activated rhCB in different buffers, Example 3
Type: biochemical
Experimental: Gold MEA Functionalization. The diced Au MEA chip was sonicated in acetone for 5 min to remove the photoresist protection layer, followed by rinsing with methanol and subsequently with isopropanol for 30 seconds. The Au MEA was then rinsed with deionized water and blow-dried with N2. Prior to use, the Au MEA chip was mounted in a home-made electrochemical cell described in our previous report and electrochemically cleaned by cycling voltammetry (CV) between −0.60 to 0.70 V in 0.10 M phosphate buffer (0.038 M NaH2PO4 and 0.061 M Na2HPO4, pH=7.4) vs. a mercury/mercurous sulfate reference electrode (MSE) filled with a saturated K2SO4 solution (CH Instruments, Austin, TX). The cleaned Au MEA was then rinsed with deionized water and blow-dried with N2. All electrochemical protease detection measurements in this study used an in-house synthesized hexapeptide H-15 attached with a ferrocene (Fc) redox tag, as the substrate (referred to as “peptide-Fc” in this study). […] To functionalize the MEA with this peptide-Fc substrate, the chip was first incubated in 1.0 mM 6-mercapto-1-hexanol mixed with 0.2 mM 6-mercapto-1-hexanoic acid in deionized water for 40 min to form a close-packed self-assembled monolayer (SAM) due to thiol adsorption on Au surface. The formed alkanethiol layer serves as an insulator to reduce the background current while providing a ratio of about 1:5 between —COOH and —OH groups at the top surface. The electrode was then incubated in 2.0 mM peptide-Fc substrate mixed with 0.2 g/L 1-ethyl-3-(3-dimethylaminopropyl)carbodiimide (EDC) and 0.2 g/L N-hydroxysulfosuccinimide (Sulfo-NHS) as coupling agents for 2 hours at room temperature to form amide bonds between the amine group in the peptide-Fc substrate and the carboxylic acid group on the SAM surface. […] The functionalized chip was rinsed with deionized water for 30 seconds to remove the physically adsorbed molecules.
Electrochemical Experiments. Electrochemical experiments were performed on a specially designed electrochemical cell mounted on a large copper block for temperature control by circulating thermostatic silicone liquid through the internal channels. The thermal circulator (Julabo, Allentown, PA) was set to achieve a temperature of 38.6° C. Two buffer solutions, 0.5×PB (pH=7.4) and 25 mM MES (pH=5.0), were used. In some experiments, the rhCB was activated by incubation in 25 mM MES buffer (pH=5.0) containing 5 mM DTT for 15 min. […] Fc signal on the Au surface was detected by alternating current voltammetry (ACV) with an AC frequency of 300 Hz and a voltage amplitude of 100 mV on a DC ramp from −0.45 V to 0.20 V vs. MSE. Electrochemical measurements were performed using an IVIUM n-Stat potentiostat (Eindhoven, The Netherlands), which allows measurement of up to ten independent working electrodes simultaneously versus a common MSE reference electrode and a common Pt coil counter electrode.
Principle of the Electrochemical Detection of Protease Activity. The sensing principles are described in Example 1. As shown in the cyclic voltammogram (CV) in FIG. 27, the Fc tag in the peptide-Fc functionalized at the Au microelectrode surface can be oxidized into ferrocenium (Fc^+), giving a pair of well-defined redox waves centered at −0.15 V (vs. MSE). These peaks disappeared after the peptide-Fc substrate was cleaved by proteolysis. The surface concentration of peptide-Fc substrate ΓSs can be derived from the integrated area under the oxidation peak to give ΓSs=3.1 pmol/cm^2, corresponding to an average nearest-neighbor distance of 7.9 nm between the peptide-Fc. This low density allows easy access by the protease. As further shown in FIG. 28, the weak faradaic signal can be amplified using ACV, i.e., applying an AC voltage on top of a DC potential ramp from −0.45 V to 0.20 V (vs. MSE). […]

With “H2N-(CH2)4-CO-Pro-Leu-Ala-Phe-Val-Ala-NH-CH2-Fc ([Ava]PLAFVA-aminomethylferrocene) [Peptide H-15]” the “inverse decay constant (1/τ)” value (1.0 nM activated cathepsin B, 0.2×PBS pH=7.4) was “(7.65±0.42)×10^−4 s^−1”, the “average measured activity (1/τ)” value (1.0 nM activated cathepsin B, 0.5×PB pH=7.4, 8 channels) was “(42.1±3.7)×10^−4 s^−1” and the “inverse decay constant (1/τ)” value (1.0 nM activated cathepsin B, 0.5×PBS pH=7.4) was “(11.44±0.64)×10^−4 s^−1”. For the same substance, the “inverse decay constant (1/τ)” value (1.0 nM activated cathepsin B, 1×PBS pH=7.4) was “(4.2±1.1)×10^−4 s^−1”, the “activity in 0.5×PB relative to 25 mM MES buffer” value (1.0 nM activated cathepsin B, same Au MEA chip) was roughly 40 times and the LOD of activity (0.5×PB, 3σblank+(1/τ)blank) was 0.000849 s⁻¹. For the same substance, the “LOD of cathepsin B concentration” value (0.5×PB, 3σblank/m) was 57.1 ± 0.41 pM and the “saturated 1/τ value” (rhCB concentration above 1.0 nM, 0.5×PB) was “about 45×10^−4 s^−1”.
